For one assay, the system named is hTNFa promoter. As to the kind of experiment: NHR-promoter luciferase screen, hTNFa promoter. The format is cell-based, human. Particulars: for Luc. act., normalized to lacZ / Normalized Luc. act., normalized to control: TNFa promoter, HR component without or with ligand; for hTNFa promoter reporter activity: transcription factor +/- ligand, control = 1.00. The procedure:
(§1) The use, feasibility, and reproducibility of the functional NHR-promoter screen in a 48-well format have been tested validated. Briefly, there were co-expressed 50 ng of each NHR/NHR homodimer or NHR/RXR heterodimer with 100 ng promoter/luciferase construct and 50 ng of LacZ (as a control for transfection efficiency) in CV-1 cells using Fugene HD (Roche) as a transfection reagent (alternatively or additionally, a CMV-YFP construct can be used as a transfection control). Each of the nuclear hormone receptors that were used in these experiments was cloned into a pcDNA3.1 vector and comprised a C-terminally linked V5H6 tag. Twenty-four hours after transfection, appropriate ligands were added, where applicable, (see Table 5 for various ligands and concentrations and after 48 hrs, samples were assayed for luciferase and LacZ activity. To measure for luciferase activity 15 ul of sample was added to 30 ul of luciferase buffer (20 mM tricine, 1.07 mM MgCarbonate, 2.67 mM MgSulfate, 0.1 mM Naz-EDTA, 5 mM DTT, 5 mM ATP, 0.15 mg/ml CoA, 0.5 mM Luciferin), mixed briefly, and run in a Perkin Elmer Victor 5 luminometer. Thus, the functional NHR-promoter screen was used to observe the transcriptional activity of 29 promoters from various physiological pathways including inflammation, lipid and sugar metabolism, cholesterol transport, xenobiotic metabolism, and circadian rhythm.
(§2) The promoters that facilitate transcription of the indicated gene products that were tested using the protocols described herein are listed in the first row of the table. The nuclear hormone receptors and, where applicable, ligands that were assayed for their transcriptional effects on the promoters are listed in the first column of the table. The data represent the luciferase activity of each sample normalized to both the lacZ activity of that sample and to a control, e.g., no NHR or ligand, as customary in the art. As described previously, these normalizations allow the transcriptional activity of each reporter cell to be compared to other samples.
(§3) Tables 7-40 show the transcriptional effects of the hormone receptors, and, where applicable, ligands (orphan receptors are screened without ligand), on each individual promoter. […] The control data of each table are shown in their last rows.

In another assay the test system is mUCP1 promoter. Nature of the assay: NHR-promoter luciferase screen, mUCP1 promoter. The format is cell-based, mouse. The conditions noted are these: for Luc. act., normalized to lacZ / Normalized Luc. act., normalized to control: mUCP1 promoter reporter, co-transfected HR, with or without its ligand; for Normalized Luc. act., normalized to control: relative to control; for luciferase activity normalized to lacZ activity and to a control, mUCP!: mUCP! promoter-luciferase, CV-1 cells, NHR +/- ligand, control = 1.00. The procedure: as §1, §2, §3

B1: RVRa: Rev-Erb α (NR1D1), cDNA driver (protein, UniProt P20393 1-614, looked up)
Nuclear receptor subfamily 1 …: MTTLDSNNNTGGVITYIGSSGSSPSRTSPESLYSDNSNGSFQSLTQGCPTYFPPSPTGSLTQDPARSFGSIPPSLSDDGSPSSSSSSSSSSSSFYNGSPPGSLQVAMEDSSRVSPSKSTSNITKLNGMVLLCKVCGDVASGFHYGVHACEGCKGFFRRSIQQNIQYKRCLKNENCSIVRINRNRCQQCRFKKCLSVGMSRDAVRFGRIPKREKQRMLAEMQSAMNLANNQLSSQCPLETSPTQHPTPGPMGPSPPPAPVPSPLVGFSQFPQQLTPPRSPSPEPTVEDVISQVARAHREIFTYAHDKLGSSPGNFNANHASGSPPATTPHRWENQGCPPAPNDNNTLAAQRHNEALNGLRQAPSSYPPTWPPGPAHHSCHQSNSNGHRLCPTHVYAAPEGKAPANSPRQGNSKNVLLACPMNMYPHGRSGRTVQEIWEDFSMSFTPAVREVVEFAKHIPGFRDLSQHDQVTLLKAGTFEVLMVRFASLFNVKDQTVMFLSRTTYSLQELGAMGMGDLLSAMFDFSEKLNSLALTEEELGLFTAVVLVSADRSGMENSASVEQLQETLLRALRALVLKNRPLETSRFTKLLLKLPDLRTLNNMHSEKLLSFRVDAQ
As to B1, in the assay on hTNFa promoter, the “Luc. act., normalized to lacZ” value stood at 1069.4; the “Normalized Luc. act., normalized to control” value is given as 1.1; the “hTNFa promoter reporter activity” value stood at 1.09. Moreover, in the assay on mUCP1 promoter, the “Luc. act., normalized to lacZ” value came to 3.8; the “Normalized Luc. act., normalized to control” value turned out to be 0.8; the “luciferase activity normalized to lacZ activity and to a control, mUCP!” value (from here on “luciferase activity normalized”) came to 0.85.

B2: RVRb: Rev-Erb β (NR1D2, alternative name RVR), cDNA driver (protein, UniProt Q14995 1-579, looked up)
Nuclear receptor subfamily 1 …: MEVNAGGVIAYISSSSSASSPASCHSEGSENSFQSSSSSVPSSPNSSNSDTNGNPKNGDLANIEGILKNDRIDCSMKTSKSSAPGMTKSHSGVTKFSGMVLLCKVCGDVASGFHYGVHACEGCKGFFRRSIQQNIQYKKCLKNENCSIMRMNRNRCQQCRFKKCLSVGMSRDAVRFGRIPKREKQRMLIEMQSAMKTMMNSQFSGHLQNDTLVEHHEQTALPAQEQLRPKPQLEQENIKSSSPPSSDFAKEEVIGMVTRAHKDTFMYNQEQQENSAESMQPQRGERIPKNMEQYNLNHDHCGNGLSSHFPCSESQQHLNGQFKGRNIMHYPNGHAICIANGHCMNFSNAYTQRVCDRVPIDGFSQNENKNSYLCNTGGRMHLVCPMSKSPYVDPHKSGHEIWEEFSMSFTPAVKEVVEFAKRIPGFRDLSQHDQVNLLKAGTFEVLMVRFASLFDAKERTVTFLSGKKYSVDDLHSMGAGDLLNSMFEFSEKLNALQLSDEEMSLFTAVVLVSADRSGIENVNSVEALQETLIRALRTLIMKNHPNEASIFTKLLLKLPDLRSLNNMHSEELLAFKVHP
In the case of B2, in the assay with hTNFa promoter, the “Luc. act., normalized to lacZ” value came out at 1017.6; the “Normalized Luc. act., normalized to control” value is 1.0; the “hTNFa promoter reporter activity” value is 1.04. Moreover, in the assay with mUCP1 promoter, the “Luc. act., normalized to lacZ” value was 4.3; the “Normalized Luc. act., normalized to control” value was 1.0; the “luciferase activity normalized” value stood at 0.96.

B3: FXR: Farnesoid X Receptor (NR1H4), cDNA driver (protein, UniProt Q96RI1 1-486, looked up)
Bile acid receptor: MVMQFQGLENPIQISPHCSCTPSGFFMEMMSMKPAKGVLTEQVAGPLGQNLEVEPYSQYSNVQFPQVQPQISSSSYYSNLGFYPQQPEEWYSPGIYELRRMPAETLYQGETEVAEMPVTKKPRMGASAGRIKGDELCVVCGDRASGYHYNALTCEGCKGFFRRSITKNAVYKCKNGGNCVMDMYMRRKCQECRLRKCKEMGMLAECMYTGLLTEIQCKSKRLRKNVKQHADQTVNEDSEGRDLRQVTSTTKSCREKTELTPDQQTLLHFIMDSYNKQRMPQEITNKILKEEFSAEENFLILTEMATNHVQVLVEFTKKLPGFQTLDHEDQIALLKGSAVEAMFLRSAEIFNKKLPSGHSDLLEERIRNSGISDEYITPMFSFYKSIGELKMTQEEYALLTAIVILSPDRQYIKDREAVEKLQEPLLDVLQKLCKIHQPENPQHFACLLGRLTELRTFNHHHAEMLMSWRVNDHKFTPLLCEIWDVQ
Turning to B3, in the assay on hTNFa promoter, the “Luc. act., normalized to lacZ” value is 974.6; the “Normalized Luc. act., normalized to control” value turned out to be 1.0; the “hTNFa promoter reporter activity” value is recorded as 0.99. Further, in the assay with mUCP1 promoter, the “Luc. act., normalized to lacZ” value is on record as 4.2; the “Normalized Luc. act., normalized to control” value came out at 1.0; the “luciferase activity normalized” value worked out at 0.95.

B4: PPARd: Peroxisome proliferator activated receptor δ (NR1C2), cDNA driver (protein, UniProt Q03181 1-441, looked up)
Peroxisome …: MEQPQEEAPEVREEEEKEEVAEAEGAPELNGGPQHALPSSSYTDLSRSSSPPSLLDQLQMGCDGASCGSLNMECRVCGDKASGFHYGVHACEGCKGFFRRTIRMKLEYEKCERSCKIQKKNRNKCQYCRFQKCLALGMSHNAIRFGRMPEAEKRKLVAGLTANEGSQYNPQVADLKAFSKHIYNAYLKNFNMTKKKARSILTGKASHTAPFVIHDIETLWQAEKGLVWKQLVNGLPPYKEISVHVFYRCQCTTVETVRELTEFAKSIPSFSSLFLNDQVTLLKYGVHEAIFAMLASIVNKDGLLVANGSGFVTREFLRSLRKPFSDIIEPKFEFAVKFNALELDDSDLALFIAAIILCGDRPGLMNVPRVEAIQDTILRALEFHLQANHPDAQYLFPKLLQKMADLRQLVTEHAQMMQRIKKTETETSLHPLLQEIYKDMY
Regarding B4, in the assay on hTNFa promoter, the “Luc. act., normalized to lacZ” value is on record as 1138.3; the “Normalized Luc. act., normalized to control” value is 1.2; the “hTNFa promoter reporter activity” value stood at 1.16. Moreover, in the assay on mUCP1 promoter, the “Luc. act., normalized to lacZ” value is recorded as 3.5; the “Normalized Luc. act., normalized to control” value was found to be 0.8; the “luciferase activity normalized” value is recorded as 0.79.

B5: RARa: Retinoic acid receptor α (NR1B1), nuclear hormone receptor cDNA driver (protein, UniProt P10276 1-462, looked up)
Retinoic acid receptor alpha: MASNSSSCPTPGGGHLNGYPVPPYAFFFPPMLGGLSPPGALTTLQHQLPVSGYSTPSPATIETQSSSSEEIVPSPPSPPPLPRIYKPCFVCQDKSSGYHYGVSACEGCKGFFRRSIQKNMVYTCHRDKNCIINKVTRNRCQYCRLQKCFEVGMSKESVRNDRNKKKKEVPKPECSESYTLTPEVGELIEKVRKAHQETFPALCQLGKYTTNNSSEQRVSLDIDLWDKFSELSTKCIIKTVEFAKQLPGFTTLTIADQITLLKAACLDILILRICTRYTPEQDTMTFSDGLTLNRTQMHNAGFGPLTDLVFAFANQLLPLEMDDAETGLLSAICLICGDRQDLEQPDRVDMLQEPLLEALKVYVRKRRPSRPHMFPKMLMKITDLRSISAKGAERVITLKMEIPGSMPPLIQEMLENSEGLDTLSGQPGGGGRDGGGLAPPPGSCSPSLSPSSNRSSPATHSP
With B5, in the assay on hTNFa promoter, the “Luc. act., normalized to lacZ” value is 1363.2; the “Normalized Luc. act., normalized to control” value was found to be 1.4; the “hTNFa promoter reporter activity” value was 1.39. Also, in the assay with mUCP1 promoter, the “Luc. act., normalized to lacZ” value was 2.8; the “Normalized Luc. act., normalized to control” value was found to be 0.6; the “luciferase activity normalized” value was determined as 0.63.

B6: RARg: Retinoic acid receptor γ (NR1B3), nuclear hormone receptor cDNA driver (protein, UniProt P13631 1-454, looked up)
Retinoic acid receptor gamma: MATNKERLFAAGALGPGSGYPGAGFPFAFPGALRGSPPFEMLSPSFRGLGQPDLPKEMASLSVETQSTSSEEMVPSSPSPPPPPRVYKPCFVCNDKSSGYHYGVSSCEGCKGFFRRSIQKNMVYTCHRDKNCIINKVTRNRCQYCRLQKCFEVGMSKEAVRNDRNKKKKEVKEEGSPDSYELSPQLEELITKVSKAHQETFPSLCQLGKYTTNSSADHRVQLDLGLWDKFSELATKCIIKIVEFAKRLPGFTGLSIADQITLLKAACLDILMLRICTRYTPEQDTMTFSDGLTLNRTQMHNAGFGPLTDLVFAFAGQLLPLEMDDTETGLLSAICLICGDRMDLEEPEKVDKLQEPLLEALRLYARRRRPSQPYMFPRMLMKITDLRGISTKGAERAITLKMEIPGPMPPLIREMLENPEMFEDDSSQPGPHPNASSEDEVPGGQGKGGLKSPA
For the molecule B6, in the assay with hTNFa promoter, the “Luc. act., normalized to lacZ” value was 1458.6; the “Normalized Luc. act., normalized to control” value stood at 1.5; the “hTNFa promoter reporter activity” value worked out at 1.48. In the assay on mUCP1 promoter, the “Luc. act., normalized to lacZ” value amounted to 5.0; the “Normalized Luc. act., normalized to control” value is 1.1; the “luciferase activity normalized” value was 1.13.

B7: RARb: Retinoic acid receptor β (NR1B2), nuclear hormone receptor cDNA driver (protein, UniProt P10826 1-455, looked up)
Retinoic acid receptor beta: MTTSGHACPVPAVNGHMTHYPATPYPLLFPPVIGGLSLPPLHGLHGHPPPSGCSTPSPATIETQSTSSEELVPSPPSPLPPPRVYKPCFVCQDKSSGYHYGVSACEGCKGFFRRSIQKNMIYTCHRDKNCVINKVTRNRCQYCRLQKCFEVGMSKESVRNDRNKKKKETSKQECTESYEMTAELDDLTEKIRKAHQETFPSLCQLGKYTTNSSADHRVRLDLGLWDKFSELATKCIIKIVEFAKRLPGFTGLTIADQITLLKAACLDILILRICTRYTPEQDTMTFSDGLTLNRTQMHNAGFGPLTDLVFTFANQLLPLEMDDTETGLLSAICLICGDRQDLEEPTKVDKLQEPLLEALKIYIRKRRPSKPHMFPKILMKITDLRSISAKGAERVITLKMEIPGSMPPLIQEMLENSEGHEPLTPSSSGNTAEHSPSISPSSVENSGVSQSPLVQ
For B7, in the assay on hTNFa promoter, the “Luc. act., normalized to lacZ” value amounted to 1854.5; the “Normalized Luc. act., normalized to control” value is listed as 1.9; the “hTNFa promoter reporter activity” value was 1.89. In the assay with mUCP1 promoter, the “Luc. act., normalized to lacZ” value was 4.4; the “Normalized Luc. act., normalized to control” value was found to be 1.0; the “luciferase activity normalized” value was found to be 1.00.
